Data published in US20050085421A1.

Target: GHSR-1a
Assay: 125I-ghrelin saturation binding on GHSR-1a membranes (typical value of membrane stock)

Work on 125I-ghrelin (peptide) yielded a Bmax of 6 fmol/µg.
